Columns and labels:
Assay in all cases: cell-based or functional assay
[1] = target: HIV-1 Env of pseudovirus 1012_11_TC21_3257 (HIV-1)
[2] = target: HIV-1 Env of pseudovirus 1054_07_TC4_1499 (HIV-1)
[3] = target: HIV-1 Env of pseudovirus 1394C9G1(Rev-) (HIV-1)
[4] = target: HIV-1 Env of pseudovirus 231965.c01 (HIV-1)
[5] = target: HIV-1 Env of pseudovirus 62357_14_D3_4589 (HIV-1)
[6] = target: HIV-1 Env of pseudovirus AC10.0.29 (HIV-1)
[7] = target: HIV-1 Env of pseudovirus BJOX009000.02.4 (HIV-1)
[8] = target: HIV-1 Env of pseudovirus BJOX015000.11.5 (HIV-1)
[9] = target: HIV-1 Env of pseudovirus BJOX028000.10.3 (HIV-1)
[10] = target: HIV-1 Env of pseudovirus CAAN5342.A2 (HIV-1)
[11] = target: HIV-1 Env of pseudovirus CNE20 (HIV-1)
[12] = target: HIV-1 Env of pseudovirus CNE52 (HIV-1)
[13] = target: HIV-1 Env of pseudovirus CNE53 (HIV-1)
[14] = target: HIV-1 Env of pseudovirus CNE58 (HIV-1)
[15] = target: HIV-1 Env of pseudovirus Ce0393_C3 (HIV-1)
[16] = target: HIV-1 Env of pseudovirus Ce1176_A3 (HIV-1)
[17] = target: HIV-1 Env of pseudovirus Ce2010_F5 (HIV-1)
[18] = target: HIV-1 Env of pseudovirus Ce2060_G9 (HIV-1)
[19] = target: HIV-1 Env of pseudovirus Du172.17 (HIV-1)
[20] = target: HIV-1 Env of pseudovirus Du422.1 (HIV-1)
[21] = target: HIV-1 Env of pseudovirus HIV-0013095-2.11 (HIV-1)
[22] = target: HIV-1 Env of pseudovirus HIV-16055-2.3 (HIV-1)
[23] = target: HIV-1 Env of pseudovirus P1981_C5_3 (HIV-1)
[24] = target: HIV-1 Env of pseudovirus Q769.d22 (HIV-1)
[25] = target: HIV-1 Env of pseudovirus Q842.d12 (HIV-1)
[26] = target: HIV-1 Env of pseudovirus T257-31 (HIV-1)
[27] = target: HIV-1 Env of pseudovirus TRO.11 (HIV-1)
[28] = target: HIV-1 Env of pseudovirus WEAU_d15_410_787 (HIV-1)
[29] = target: HIV-1 Env of pseudovirus X1254_c3 (HIV-1)
[30] = target: HIV-1 Env of pseudovirus X1632_S2_B10 (HIV-1)
[31] = target: HIV-1 Env of pseudovirus ZM109F.PB4 (HIV-1)
[32] = target: HIV-1 Env of pseudovirus ZM135M.PL10a (HIV-1)
[33] = target: HIV-1 Env of pseudovirus ZM197M.PB7 (HIV-1)
[34] = target: HIV-1 Env of pseudovirus ZM214M.PL15 (HIV-1)
[35] = target: HIV-1 Env of pseudovirus ZM233M.PB6 (HIV-1)
[36] = target: HIV-1 Env of pseudovirus ZM247v1(Rev-) (HIV-1)
[37] = target: HIV-1 Env of pseudovirus ZM53M.PB12 (HIV-1)

PGT151 (antibody) was tested, and the neutralization IC50 [1] was > 50 µg/mL, the neutralization IC80 [1] was > 50 µg/mL and the neutralization IC50 [2] was 0.008 µg/mL. It also gave a neutralization IC80 [2] of 0.032 µg/mL, a neutralization IC50 [3] of 0.022 µg/mL and a neutralization IC80 [3] of 0.733 µg/mL. For the same substance, the IC50 (Titer in TZM.bl cells) [4] was < 0.001 µg/mL, the IC80 (Titer in TZM.bl cells) [4] was 0.012 µg/mL and the neutralization IC50 [5] was 0.004 µg/mL. It also gave a neutralization IC80 [5] of 0.023 µg/mL, a neutralization IC50 [6] of 0.007 µg/mL and a neutralization IC80 [6] of 0.023 µg/mL. The IC50 (Titer in TZM.bl cells) [7] was > 50 µg/mL, the IC80 (Titer in TZM.bl cells) [7] was > 50 µg/mL and the IC50 (Titer in TZM.bl cells) [8] was > 50 µg/mL. For the same substance, the IC80 (Titer in TZM.bl cells) [8] was > 50 µg/mL, the IC50 (Titer in TZM.bl cells) [9] was > 50 µg/mL and the IC80 (Titer in TZM.bl cells) [9] was > 50 µg/mL. For the same substance, the neutralization IC50 [10] was 0.005 µg/mL, the neutralization IC80 [10] was 0.038 µg/mL and the neutralization IC50 [11] was > 50 µg/mL. For the same substance, the neutralization IC80 [11] was > 50 µg/mL, the neutralization IC50 [12] was 0.004 µg/mL and the neutralization IC80 [12] was 0.017 µg/mL. For the same substance, the neutralization IC50 [13] was > 50 µg/mL, the neutralization IC80 [13] was > 50 µg/mL and the neutralization IC50 [14] was 0.004 µg/mL. The neutralization IC80 [14] was 0.016 µg/mL, the neutralization IC50 [15] was > 50 µg/mL and the neutralization IC80 [15] was > 50 µg/mL. The neutralization IC50 [16] was 0.006 µg/mL, the neutralization IC80 [16] was 0.018 µg/mL and the neutralization IC50 [17] was > 50 µg/mL. For the same substance, the neutralization IC80 [17] was > 50 µg/mL, the neutralization IC50 [18] was 0.135 µg/mL and the neutralization IC80 [18] was > 50 µg/mL. It also gave a neutralization IC50 [19] of 0.003 µg/mL, a neutralization IC80 [19] of 0.013 µg/mL and a neutralization IC50 [20] of 4.6 µg/mL. The neutralization IC80 [20] was > 50 µg/mL, the neutralization IC50 [21] was > 50 µg/mL and the neutralization IC80 [21] was > 50 µg/mL. The neutralization IC50 [22] was 0.143 µg/mL, the neutralization IC80 [22] was > 50 µg/mL and the IC50 (Titer in TZM.bl cells) [23] was 0.021 µg/mL. For the same substance, the IC80 (Titer in TZM.bl cells) [23] was > 50 µg/mL, the neutralization IC50 [24] was > 50 µg/mL and the neutralization IC80 [24] was > 50 µg/mL. The neutralization IC50 [25] was 0.001 µg/mL, the neutralization IC80 [25] was 0.014 µg/mL and the neutralization IC50 [26] was 0.003 µg/mL. For the same substance, the neutralization IC80 [26] was 0.01 µg/mL, the neutralization IC50 [27] was > 50 µg/mL and the neutralization IC80 [27] was > 50 µg/mL. The neutralization IC50 [28] was 0.01 µg/mL, the neutralization IC80 [28] was > 50 µg/mL and the IC50 (Titer in TZM.bl cells) [29] was 0.309 µg/mL. For the same substance, the IC80 (Titer in TZM.bl cells) [29] was > 50 µg/mL, the IC50 (Titer in TZM.bl cells) [30] was 0.061 µg/mL and the IC80 (Titer in TZM.bl cells) [30] was > 50 µg/mL. For the same substance, the neutralization IC50 [31] was 0.609 µg/mL, the neutralization IC80 [31] was > 50 µg/mL and the neutralization IC50 [32] was > 50 µg/mL. The neutralization IC80 [32] was > 50 µg/mL, the neutralization IC50 [33] was 0.003 µg/mL and the neutralization IC80 [33] was 0.033 µg/mL. It also gave a neutralization IC50 [34] of 0.008 µg/mL, a neutralization IC80 [34] of 0.045 µg/mL and a neutralization IC50 [35] of 0.027 µg/mL. For the same substance, the neutralization IC80 [35] was 5.16 µg/mL, the neutralization IC50 [36] was 0.009 µg/mL and the neutralization IC80 [36] was > 50 µg/mL. The neutralization IC50 [37] was > 50 µg/mL and the neutralization IC80 [37] was > 50 µg/mL.
